The text below walks through data of patent US20120100575A1 (Biogen, published 2012).

Assay [1] has as its target T1, FcγRI (CD64) on IFNγ-activated U937 cells (UniProt P12314 16-374, limits assumed).
T1 construct: whole, on cells; also called FcRγI
Description: FcγRI bridging assay, FIG. 13 upper panel. The protocol: (§1) Briefly, the FcγR bridging assay was performed by coating 96 well Maxisorb ELISA plates (Nalge-Nunc Rochester, N.Y., USA) with recombinant soluble human CD154 ligand (i.e., at a concentration of 1 μg/ml overnight at 4° C. in PBS; Karpusas, Hsu et al. 1995). Titrations of glycosylated or aglycosylated forms of anti-CD154 antibody (hu5c8) were then bound to CD154 for 30 minutes at 37° C., the plates were then washed, and the binding of fluorescently labeled U937 (CD64⁺) cells was measured. The U937 cells were grown in RPMI medium with 10% FBS, 10 mM HEPES, L-glutamine, and penicillin/streptomycin, split 1:2, and activated for one day prior to the assay with 1000 units/ml of IFNγ to increase Fc receptor (FcγRI) expression.
(§2) In the assays for both receptors, the Fc receptor-bearing cells were labeled with 2′,7′-bis-(2-carboxyethyl)-5-(and-6)-carboxyfluorescein acetoxymethyl ester (BCECF-AM) (Molecular Probes Eugene, Oreg., USA) for 20 minutes at 37° C. After washing to remove excess label, 1×10⁵ of the labeled cells were incubated in the assay for 30 minutes at 37° C. Unbound FcγR positive cells were removed by washing several times and plates were read on a microplate reader (Cytofluor 2350 Fluorescent Microplate Reader, Millipore Corporation Bedford, Mass., USA) at an excitation wavelength of 485 nm and an emission wavelength of 530 nm.

The target in assay [2] is T2, human C1q (Sigma C0660) (human, UniProt P02745 23-245; P02746 28-253; P02747 29-245).
T2 construct: The three subunits come from general knowledge of C1q; also called complement protein C1q
T2 sequence (P02745 23-245 limits assumed, chain 1 of 3): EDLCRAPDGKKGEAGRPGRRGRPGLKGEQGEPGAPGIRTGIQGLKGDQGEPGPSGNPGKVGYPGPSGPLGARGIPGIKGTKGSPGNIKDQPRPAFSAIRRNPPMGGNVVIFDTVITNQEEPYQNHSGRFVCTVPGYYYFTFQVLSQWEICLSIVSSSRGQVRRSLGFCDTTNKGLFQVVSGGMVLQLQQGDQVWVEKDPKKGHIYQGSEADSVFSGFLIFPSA
T2 sequence (P02746 28-253 limits assumed, chain 2 of 3): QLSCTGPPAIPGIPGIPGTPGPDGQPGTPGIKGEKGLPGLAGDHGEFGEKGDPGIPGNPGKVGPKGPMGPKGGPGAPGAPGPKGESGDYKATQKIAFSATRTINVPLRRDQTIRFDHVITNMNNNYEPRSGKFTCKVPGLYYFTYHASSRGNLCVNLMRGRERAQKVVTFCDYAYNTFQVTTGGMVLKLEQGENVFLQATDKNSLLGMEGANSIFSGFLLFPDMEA
T2 sequence (P02747 29-245 limits assumed, chain 3 of 3): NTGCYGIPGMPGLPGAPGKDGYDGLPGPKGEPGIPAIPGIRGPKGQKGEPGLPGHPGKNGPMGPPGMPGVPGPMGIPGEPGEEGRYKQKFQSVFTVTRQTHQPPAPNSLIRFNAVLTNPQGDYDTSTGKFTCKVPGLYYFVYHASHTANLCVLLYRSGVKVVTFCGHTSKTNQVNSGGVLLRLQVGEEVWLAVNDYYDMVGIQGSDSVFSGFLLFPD
Briefly: C1q bridging ELISA: antibody captured on plate-coated soluble human CD154, human C1q detected with sheep anti-C1q. The protocol:
(§3) The C1q binding assay was performed by coating 96 well Maxisorb ELISA plates (Nalge-Nunc Rochester, N.Y., USA) with 50 μl recombinant soluble human CD154 ligand (Karpusas et al. Structure, 15;3(12):1426 (1995) at 10 μg/ml overnight at 4° C. in PBS. The wells were aspirated and washed three times with wash buffer (PBS, 0.05% Tween 20) and blocked for ≧1 h with 200 μl/well of block/diluent buffer (0.1 M Na₂HPO₄, pH 7, 0.1 M NaCl, 0.05% Tween 20, 0.1% gelatin). The antibody to be tested was diluted in block/diluent buffer starting at 15 μg/ml with 3-fold dilutions. 50 μl were added per well, and the plates incubated for 2 h at room temperature. After aspirating and washing as above, 50 μl/well of 2 μg/ml of Sigma human C1q (C0660) diluted in block/diluent buffer was added and incubated for 1.5 h at room temperature. After aspirating and washing as above, 50 μl/well of sheep anti C1q (Serotec AHP033), diluted 3,560-fold in block/diluent buffer, was added. After incubation for 1 h at room temperature, the wells were aspirated and washed as above. […] The absorbance was read at 450 nm with a Softmax PRO instrument, and Softmax software was used to determine the relative binding affinity (C value) with a 4-parameter fit.

Assay [3] concerns the target T2, human C1q (Sigma C0660). Briefly: C1q bridging ELISA: antibody captured on plate-coated soluble human CD154, human C1q 2 µg/ml detected with sheep anti-C1q. The protocol:
as §3

In assay [4] the target is T1, FcγRI (CD64) on IFNγ-activated U937 …. Description: FcγRI bridging assay: antibody captured on plate-coated soluble human CD154, binding of fluorescently labeled IFNγ-activated U937 (CD64+) cells. The protocol:
as §1, §2

T1 sequence (P12314 16-374 limits assumed): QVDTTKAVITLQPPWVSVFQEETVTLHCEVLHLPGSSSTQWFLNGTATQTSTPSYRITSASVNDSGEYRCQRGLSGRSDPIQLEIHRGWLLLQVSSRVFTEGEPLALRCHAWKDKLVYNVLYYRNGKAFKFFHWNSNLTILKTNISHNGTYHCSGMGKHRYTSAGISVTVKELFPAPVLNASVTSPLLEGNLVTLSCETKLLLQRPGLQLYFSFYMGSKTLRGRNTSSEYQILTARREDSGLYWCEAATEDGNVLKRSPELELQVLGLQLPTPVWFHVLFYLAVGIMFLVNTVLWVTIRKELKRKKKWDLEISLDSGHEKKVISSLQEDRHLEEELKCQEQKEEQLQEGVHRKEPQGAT

B1: hu5c8 IgG4 variant (S228P/T299A), aglycosylated (antibody)
heavy: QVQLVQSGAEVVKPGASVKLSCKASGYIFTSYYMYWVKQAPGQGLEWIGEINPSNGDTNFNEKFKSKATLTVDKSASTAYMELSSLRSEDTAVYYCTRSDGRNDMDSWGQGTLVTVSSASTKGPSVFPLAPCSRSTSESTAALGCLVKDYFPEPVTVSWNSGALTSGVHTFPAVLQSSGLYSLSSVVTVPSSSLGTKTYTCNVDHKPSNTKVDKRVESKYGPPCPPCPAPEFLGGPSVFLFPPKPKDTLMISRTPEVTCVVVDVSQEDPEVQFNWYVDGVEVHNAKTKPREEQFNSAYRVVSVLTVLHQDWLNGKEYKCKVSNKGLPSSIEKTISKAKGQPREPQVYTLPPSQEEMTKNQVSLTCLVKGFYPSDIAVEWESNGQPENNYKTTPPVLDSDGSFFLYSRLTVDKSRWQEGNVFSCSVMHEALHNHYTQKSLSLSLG
light: DIVLTQSPATLSVSPGERATISCRASQRVSSSTYSYMHWYQQKPGQPPKLLIKYASNLESGVPARFSGSGSGTDFTLTISSVEPEDFATYYCQHSWEIPPTFGGGTKLEIKRTVAAPSVFIFPPSDEQLKSGTASVVCLLNNFYPREAKVQWKVDNALQSGNSQESVTEQDSKDSTYSLSSTLTLSKADYEKHKVYACEVTHQGLSSPVTKSFNRGEC
notes: also called IgG4 T299A; aglycosyl IgG4 T299A antibody variant
Turning to B1, the binding result in assay [1] was “binds”; in assay [2], “no binding”.

B2: hu5c8 IgG1 (glycosylated parent anti-CD154 antibody) (antibody)
heavy: not shown
light: DIVLTQSPATLSVSPGERATISCRASQRVSSSTYSYMHWYQQKPGQPPKLLIKYASNLESGVPARFSGSGSGTDFTLTISSVEPEDFATYYCQHSWEIPPTFGGGTKLEIKRTVAAPSVFIFPPSDEQLKSGTASVVCLLNNFYPREAKVQWKVDNALQSGNSQESVTEQDSKDSTYSLSSTLTLSKADYEKHKVYACEVTHQGLSSPVTKSFNRGEC
notes: Expressed in EBNA 293 cells; also called hu5c8 antibody; glycosylated IgG1
As for B2, the binding result in assay [3] and in assay [4] was “binds” each time.
